According to the supplement of paper PMC12455559:
± gives the standard deviation of the averaged measurements.

What was measured:
[1] = melting temperature (DSF); higher = more thermostable
Protocol: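 Candidate PET hydrolases were expressed in E. coli C41(DE3) in 2 mL autoinduction cultures in 24-deep-well plates, Ni-bead purified and released by SUMO protease cleavage on an OT-2 robot. Yield per well was measured by BCA; values below 25 ug (0.1 mg/mL) are below the detection threshold. Melting temperature was measured by differential scanning fluorimetry with Sypro Orange, ramping from 25 C at 0.3 C/step.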

[2] = purified protein yield per well (BCA); higher = higher soluble expression
In short: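 Values under 25 ug (0.1 mg/mL) are below the detection threshold. Purified protein yield per well was quantified with the Pierce Rapid Gold BCA kit after candidate enzymes, expressed in E. coli C41(DE3), were captured on Ni-charged magnetic beads and released by SUMO protease on an OT-2 robot. Cultures were 2 mL autoinduction with 100 µg/mL kanamycin, run 2 h at 37 °C and then 40 h at 18 °C.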

[3] = PET hydrolysis, aromatic products released after 48 h (umol product/mg enzyme); higher = more PET depolymerization activity
Protocol: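 HTP-purified, SUMO-cleaved, tagless PET hydrolase candidates (5 ug, 1.43 mg/g PET) were incubated 48 h without shaking with 3.5 mg amorphous PET film (aFilm) or crystalline PET powder (cryPow) in 0.5 mL buffer: NaCitrate pH 4.5/5.5, NaPhosphate pH 6.5/7.5, glycine pH 8.5. Incubation was at 40 or 60 C. Aromatic products (TPA, MHET, BHET) in the supernatant were quantified by UV absorbance at 260/280 nm relative to buffer blanks and expressed per mg enzyme. LCC-ICCG was the positive control on every plate.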

[4] = substrate: cryPow, 40 °C, pH 5.5
[5] = substrate: cryPow, 40 °C, pH 6.5
[6] = substrate: cryPow, 40 °C, pH 7.5
[7] = substrate: cryPow, 40 °C, pH 8.5
[8] = substrate: cryPow, 40 °C, pH 4.5
[9] = substrate: cryPow, 60 °C, pH 4.5
[10] = substrate: cryPow, 60 °C, pH 5.5
[11] = substrate: cryPow, 60 °C, pH 6.5
[12] = substrate: cryPow, 60 °C, pH 7.5

ADNPYERGPAPTTASIEAVRGPYAVSEYRVSSLAATGFGGGTIHYPTTTADGTFGAIAVSPGYTGTESTIAWLGPRLASQGFVVFTIETLTLFDQPDSRGRQLLAALDHLTRVSPLRGRVDSSRLGVMGHSMGGGGSLEAAKSRPSLQAAVPLTPWNLDKTWPELRTPTLVVGADGDSIAPVRSHAEPFYESLPSSLDRAYLELNGASHFAPNSPDTTIAKYSIAWLKRFIDNDTRYEQFLCPLPRPSLTIEEYRGNCPHTS [TEP138]
melting temperature [1]: 36.1 C
purified protein yield per well [2]: 28 µg

ADSPYQRGPDPTPASVAATRGPFATTQATVPAGNGFNGGYVYYPTDTSQGTWGAVAIVPGYSALFANEEAWMGPWLASFGFVVIGIETNSRTDGADARATQLLAALDYLTRTSPIRDRVDANRLGVMGHSAGGAGTLLAALRRPTLKTAVGLAPGTPGNNLNMSTTQVPTMLLSGQNDGTVTPTYVQGIYNTLPAGVEHAWAELAGNDHLSFTRSNPTEMRLLIPWLKTFLDNDTRYTQFLCPLANSTGVSRYNATCPLVPPDGPTSPPTTTPPTSAPPTTSAPTTPPPSGATCTATYRTVNSWSGGFQGEVTVTAGAAALNGWTVRWESNNGQSISQVWNGTLSTSGSTATVRNVSYNGSLAAGATTTFGFLSSGTPAATSPTCASP [ESM051]
melting temperature [1]: 54.4 C
purified protein yield per well [2]: 27.3 µg

DTNPFQRGPAPTEASVSAQKGPFATAQVNVPANSGEGFNDGTIYYPTDTSQGTFGAIAVMPGFLSPQDWIRWYGPTLASQGFVVMTLDSKGFIDSPTARGNQLLAALDYLTTKSKVVDRIDTSRLGVVGWSMGGGGALESTYNRPSLKADVALAPWHVGLDQSKITVPSLILADDNDWLAPTGSFAKPFYAGIPESTNKAFIELKNANHFTFTGYNKNIAKYAVSWLKRFVDDDTRYDQFLCPKPATNNEISQSEETCPLH [DP054]
purified protein yield per well [2]: 39 µg
PET hydrolysis [3, 4]: 5
PET hydrolysis [3, 5]: 7
PET hydrolysis [3, 6]: < 3
PET hydrolysis [3, 7]: < 3

FSATGPSAPCSNCTRGPAPTVTALKASTGPFTTAKFSVSGFLKGYGDSTVYYPTNTTGKMGAIAVIPGYLSYESSIDWWGPRLASHGFVVMTMNTKTIYDQPDSRASQLSEALDYLIAQSKSSSSPLYNKIDSTRLGAIGWSMGGGGSLKLATQRSINAIIPQAPWYLGSSAFSGIKTPTLILACSADTVAPVAQHASPFYNQIPNSTPKAFLEIYGGSHFCANSGYPNQDMLGMYGIAWMKRFIDFDSRYSQFLCGPNHESDYAISDYRENCPY [ESM055]
melting temperature [1]: 55.3 C
purified protein yield per well [2]: 28.9 µg

GESPGAAVVAFAGHAKGPAPTEQSVRAQQGPFTTDKLVVPAQAGRGFNKGTIYYPDDTSQGTFGAVAVIPGFLEGESAISWLGPTLASHGFITLTLAPNATTDYPEPRSNQLLAAVDWLANQSPVKDRVDPNRLAVAGHSMGGGGTLIAASKNPALKAAVPLTPWNPHSNFSDVTVPTLIIGADRDFIAPTFMHASPMYNSLKAKQDQAYLKLKNADHFATNRYNATATAYTVSWLKRYVDEDTRYSQFLCPVKSGFQLTCPI [DP011]
purified protein yield per well [2]: 26 µg
PET hydrolysis [3, 4]: < 3
PET hydrolysis [3, 5]: < 3
PET hydrolysis [3, 6]: < 3
PET hydrolysis [3, 7]: < 3

MHPTPDRAKVLPVNVSRGPAEPPAARSARPGGRSAPDGLRPGRRRPVPSSEQGATDVQSHPPTPANRRTRTVATLALALTLVGGAGAIAPTAHAAAGHERGPNPTSAALEASRGPFSVSSTTVSSLSASGFGGGTIYYPNDTGQGTFGGVIVAPGFTASRSTMAWLAERLASHGFVVFNIDTITRSDQPDSRGRQLLAAADHLAEESSPAVRSRLDAGRIGVMGHSMGGGGTLAAAESRPSLQAAVPLTPWHTDKSWGSVQVPTMIIGAENDSVAPVSSHAEPFYNSLSSAQEKAYLELNGASHFAPNSSNSTLAKYSIAWMKRFVDDDLRYDQFLCPAPGRSTRIEEYRSSCPH [TEP081]
purified protein yield per well [2]: 35.7 µg
PET hydrolysis [3, 8]: < 3
PET hydrolysis [3, 4]: < 3
PET hydrolysis [3, 5]: < 3
PET hydrolysis [3, 6]: < 3

MPQQAQAGPGNPYERGPAPTEASVTAERGPFAVSQKAVPESADGRFNKGTVYYPTDTSQGTFGAVAISPGFVSPEAAVGWLGPRLASQGFVVMTLETNTPLDFPDQRADQLLGALDWLTTSSDVRERIDASRLAVAGHSMGGGASLRASEKRPTLQAAVPLTPWHTDKTWEKDPVPTLVVGAENDTVAPVAEHAEPFYSSLSAAPEKAYLELEGADHLAPVAPNVTVAKYAISWLKRYVDDDTRYEQFLCPPPRPSSTISEYRDTCPGS [TEP193]
purified protein yield per well [2]: 50.4 µg
PET hydrolysis [3, 8]: < 3
PET hydrolysis [3, 4]: < 3
PET hydrolysis [3, 5]: < 3
PET hydrolysis [3, 6]: < 3

MSNPYQRGPNPTRSALTADGPFSVATYTVSRLSVSGFGGGVIYYPTGTSLTFGGIAMSPGYTADASSLAWLGRRLASHGFVVLVINTNSRFDGPDSRASQLSAALNYLRTSSPSAVRARLDANRLAVAGHSMGGGGTLRIAEQNPSLKAAVPLTPWHTDKTFNTSVPVLIVGAEADTVAPVSQHAIPFYQNLPSTTPKVYVELCNASHIAPNSNNAAISVYTISWMKLWVDNDTRYRQFLCNVNDPALCDFRTNNRHCQLEHHHHHH [LCC-ICCG]
melting temperature [1]: 93.6 C
PET hydrolysis ([3]; substrate: aFilm, 40 °C, pH 4.5): 8.5 ± 1.9
PET hydrolysis ([3]; substrate: aFilm, 40 °C, pH 5.5): 17.4 ± 9.2
PET hydrolysis ([3]; substrate: aFilm, 40 °C, pH 6.5): 38.1 ± 12
PET hydrolysis ([3]; substrate: aFilm, 40 °C, pH 7.5): 58.9 ± 20
PET hydrolysis ([3]; substrate: aFilm, 40 °C, pH 8.5): 73 ± 30
PET hydrolysis ([3]; substrate: aFilm, 60 °C, pH 4.5): 60.8 ± 8
PET hydrolysis ([3]; substrate: aFilm, 60 °C, pH 5.5): 448
PET hydrolysis ([3]; substrate: aFilm, 60 °C, pH 6.5): 820 ± 23
PET hydrolysis ([3]; substrate: aFilm, 60 °C, pH 7.5): 965 ± 100
PET hydrolysis ([3]; substrate: aFilm, 60 °C, pH 8.5): 584
PET hydrolysis [3, 8]: 20.1 ± 5.3
PET hydrolysis [3, 4]: 51.5 ± 15
PET hydrolysis [3, 5]: 94.5 ± 18
PET hydrolysis [3, 6]: 130 ± 20
PET hydrolysis [3, 7]: 113 ± 14
PET hydrolysis [3, 9]: 56.2 ± 7.2
PET hydrolysis [3, 10]: 121 ± 18
PET hydrolysis [3, 11]: 208 ± 33
PET hydrolysis [3, 12]: 236 ± 3

QAPTRESLGAQGPYQVAYYSNFPAVQEFTAGTIYFPANKAQTFGAVAISPGFAERQENMSWWGRHLASHGFAVLTLDTNELRDDPAIRAEALMAALRVLSGESEREGSPLRGKIDTNRMAIMGHSMGGGGTLLAANTHSSELKAAIPFTPWQPDGDFSDVTVPTLIIAGEIDRVAPVNDHAWPHYQSLSASNPRLYLEIRGGNHFIANTAT [TEP038]
purified protein yield per well [2]: 52.1 µg
PET hydrolysis [3, 8]: < 3
PET hydrolysis [3, 4]: < 3
PET hydrolysis [3, 5]: < 3
PET hydrolysis [3, 6]: < 3

QSNPYERGPAPTESSIEATRGSFSVSDKNVSSFSASGFGGGTIYYPTDTSQGTFGGVAISPGFTAGESSIAWLGPRIASQGFVVITIDTNSRYDQPNSRADQLQAALDHIVADSTVGSRIDPNRLAVMGHSMGGGGSLKAAEDNADLQAAVPLQPWHTQKNWSDVEVPTLIIGAENDSVASVTTHSKPFYTSLPDDLDKAYLELDGASHFVSNTPDTTTAKYSISWLKRFVDDDTRYEQFLCPAPDDRTISEYRDTCPHSGGGGTTPTTTPTTLPPDDDCAWWQWWC [DP057]
purified protein yield per well [2]: 34 µg
PET hydrolysis [3, 4]: < 3
PET hydrolysis [3, 5]: 10
PET hydrolysis [3, 6]: 29
PET hydrolysis [3, 7]: 31

QVAIFQESFSSGLGGFTATGTVGTSTGAARMEGCYGCTDGAITSGAISTQGFTGLSLSFDRVTSGLDSGEAGIAEYSTNGSTWTAVESTRVTTNGRVTFSLPDTAAGQAALRLRFRIDASLSSETYTVDNVQLTGIPGDTGTNPYAKGPNPTTSMLESSTGPFTYATTNVSEFSASGYGGGTIYHPTNVAGPFAAIAISPGYTGTKSTMSWWGERLASHGFVVITIDTNSIYDQPYERAPQLMAALRQLVTFSNTSSHPIYRKVDPNRLGVMGHSMGGGGTLIAARDNPTLKAAIPLAPWNTSTDFSSVRVPTLVVACESDTIAPVSQHASPFYNSIPASATKKAFMEMNNGDHFCVMTGNDYTRIMGKYGVAWMKRFMDNDTRYSPFLCGAPHQADLSNIQISEYRENCPY [DP048]
purified protein yield per well [2]: 56 µg
PET hydrolysis [3, 4]: < 3
PET hydrolysis [3, 5]: < 3
PET hydrolysis [3, 6]: < 3
PET hydrolysis [3, 7]: < 3
PET hydrolysis [3, 10]: < 3
PET hydrolysis [3, 11]: < 3
PET hydrolysis [3, 12]: < 3
PET hydrolysis ([3]; substrate: cryPow, 60 °C, pH 8.5): < 3

SNPTPTPTPTPTPTPTPGNNPFQRGPNPTLSFIEANSGPYSVRTSRVSSYTSGFGGGTIHYPTGQSGTMGAIVVIPGFVSAESSIEWWGPKLASHGFVVMTIDTNSGFDQPPSRARQINAALDYLVAQNRSSRSPVRGMIDTNRLGVVGWSMGGGGTLRVASEGRIKAAIPLAPWDTTSFRNVKAPTLIFACESDVIAPVGQHASPFYNELPSNISKAFVELNGGSHYCGNGGNSYNDVLSRFGVSWMKRFLDNDTRYSQFLCGPNHTSDRDISEYRGNCNY [ESM042]
purified protein yield per well [2]: 73.3 µg
PET hydrolysis [3, 8]: < 3
PET hydrolysis [3, 4]: < 3
PET hydrolysis [3, 5]: < 3
PET hydrolysis [3, 6]: < 3
PET hydrolysis [3, 9]: < 3
PET hydrolysis [3, 10]: < 3
PET hydrolysis [3, 11]: < 3
PET hydrolysis [3, 12]: < 3

TAGAEPSGGAPAAGGSGCGDVADPAAQGPLHVQTYSSGLRDGPDYGSQTMHYPTDGAPPYPALVIVPGFMSLESSIADHGPHFASHGIVTLTIGTNSTMDQPPARSEALLDALETIRAEHTRAGGPLEGKLDLSRLGVMGWSMGGGGTLITVDDHPELKAAITLCAWNPGQTYRNNQVPTLLFAGTADTLAGG [TEP195]
purified protein yield per well [2]: 30.1 µg
PET hydrolysis [3, 8]: < 3
PET hydrolysis [3, 4]: < 3
PET hydrolysis [3, 5]: < 3
PET hydrolysis [3, 6]: < 3

VPVVPAQQENPYQRGPDPTPESVEAPRGSFAIEKATIARGSVQGFGGGTIYYPTDTAEGTFGAVAISPGFTESQSAISWYGERLATQGFVVFTIDTNGGLDQPDSRADQLLAALDFLTGSSEVKDRIDASRLGVLGHSMGGGGSLSAAKKRPALQAAVPLAPWHTNSNWSDVTVPTLIVGAENDAVAPVGMHAEPFYAGLTKAPEKAYLELKGADHFVTNSPNTVIAKSTLSWLKRFIDDDTRYDQFLCPPPKPDNDISEYRDTCPN [DP051]
purified protein yield per well [2]: < 25 µg
PET hydrolysis [3, 4]: < 3
PET hydrolysis [3, 5]: < 3
PET hydrolysis [3, 6]: < 3
PET hydrolysis [3, 7]: < 3
